Measured values as given in patent publication US20250382355A1 (Merck Sharp & Dohme, published 2025).

B1: 7A9 VHH-Fc (Fc fusion)
chain: QVQLVESGGGLVQAGGSLRLSCSASGGTASRSAMGWFRQAPGKEREFVAGISRRNSGSTYVADSYEDSVKGRFTISRDNAKNTIYLQMNSLKPEDTAVYYCAAEPTLGWYVPRRSVEYEYWGQGTQVTVSS
B2: 5G11 VHH-Fc (Fc fusion)
chain: QVQLVESGGGLVQAGGSLRLSCAASGRTFSIYAVGWFRQAPGKERDFVAGITWSGGTTYYSDSVKGRFTISRDNAKNTVYLQMNNLKPEDTAIYYCAVDTYSMTLSARSYDYWGQGTQVTVSS
B3: 9B2 VHH-Fc (Fc fusion)
chain: QVQLVESGGGLVQPGGSLRLSCAASGFTLDNYAIGWFRQAPGKEREGVSCISSSDGDTQYADSVKGRFTISRDNAKNTVYLQMNSLKPEDTAVYYCAVEKVYARSWFFHLCSELDFGSWGQGTQVTVSS
B4: 11F8 VHH-Fc (Fc fusion)
chain: QVQLVESGGGLVQAGGSLRLSCAASGRTVGYYAVGWFRQAPGKERDFVAAISWSGRNTNYADSVTGRFTIFRDNAKNTVDLQMNSLKPEDTAVYYCAADYWNYGSGSEVPNNYDTWGQGTQVTVSS
B5: 13C8 VHH-Fc (Fc fusion)
chain: QVQLVESGGGLVQAGGSLRLSCAASGRTVNKYMTGWFRQTPGKEREFVASIDWSSTTTHYANSVKGRFTISRDKVKNTVYLQMNGLKPEDTAVYYCAAHQDSSYGYTILPIDYDSWGQGTQVTVSS
B6: 15H1 VHH-Fc (Fc fusion)
chain: QVQLVESGGGLAQAGGSLRLSCASSGLIFSGSAMGWFRQAPGKEREFVGVISWNGRTTYADSVKGRFTISRDDAVNMVWLQMNNLKPEDTAVYYCAADHLNYGSGDVNPRTYDYWGQGTQVTVSS
B7: 15H7 VHH-Fc (Fc fusion)
chain: QVQLVESGGRLVQAGGSLRLSCAAPGRTFRNLTLGWFRQAPGKEREFVASTSWPDDEMTYYTDSVKGRFTISRDNAKNTVYLQMNSLKPEDTAVYYCAAASWSGRSTLSYDYDYWGQGTQVTVST
B8: 1A11 VHH-Fc (Fc fusion)
chain: QVQLVESGGGLVQAGGSLRLSCEVSGSIYSINSMGWYRQAPGKQRELVAGIVSDGRINYADSVKGRFTISRAKNTVYLQMNSLKPEDTAVYYCAADRAFVYAGDYDYLGQGTQVTVSS
B9: 19E10 VHH-Fc (Fc fusion)
chain: QVQLVESGGGLVQPGGSLRLSCVASGSTISINSMGWYRQAPGKAREMVATITNDGPIKYADPVKGRFTISRDNPKNTVYLQMNSLKPEDTAVYYCVADRAYWLAGEWEYWGQGTQVTVSS
B10: 5D7 VHH-Fc (Fc fusion)
chain: QVQLVESGGGLVQAGGSLRLSCAASGRTGSRYIMGWFRQAPGKEREFVAAINWRGDSTYYADSVKGRFTIARDNAKNTAYLQMNSLKPEDTAVYYCVADRGESYYYTRSTEYTYWGQGTQVTVSS
B11: 10B8 VHH-Fc (Fc fusion)
chain: QVQLVESGGGLVQPGGSLRLSCAASGITLDYYAIAWFRQAPGKEREGVSCFCSSDGDIRYADSVKGRFTISRDNAKNTVYLQMNSLKPEDTAVYYCATERVYSSTWFFHRYSELDFGSWGRGTQVTVSS
B12: 8E9 VHH-Fc (Fc fusion)
chain: QVQLVESGGGLVEAGGSLRLSCVASGSSSSINAMGWYRQAPGKQRELVASISHDGETKYANSVKGRFTISRGNAKNTIYLQMNSLKPEDTAVYYCVGDVAWVVVAGEYDYWGQGTQVTVSS
B13: 5A6 VHH-Fc (Fc fusion)
chain: QVQLVESGGGLAQAGGSLRLSCATSGLTFSMSAMGWFRQAPGNEREFVGVINWNGGSSRYADSVRGRFTISRDNAKNTVYLQMNSLKPEDTGVYYCAADALNIGTGEVNPRLYDYWGQGTQVMVSS

target: SARS-CoV prefusion-stabilized spike protein (SARS-CoV-PreS) (SARS-CoV, UniProt P59594 14-1190); test: ELISA

Binder | EC50 [pM]
B1 | 60
B2 | 180
B3 | 120
B4 | 180
B5 | 100
B6 | 60
B7 | 80
B8 | 50
B9 | 30
B10 | 40
B11 | 130
B12 | 80
B13 | 90
